In one experiment the target is tetanus toxoid (Clostridium tetani, production strain …, UniProt P04958).
For experiment [1], the target named is T1, H1N1 HA (A/California/04/2009) (Influenza A virus A/California/04/2009 …, UniProt C3W5S1, strain).
T1 construct: source: bought: Sino Biological
Nature of the experiment: ELISA.

The target of experiment [2] is T2, H2N2 HA (A/Japan/305/1957) (Influenza A virus A/Japan/305/1957 …, UniProt P03451, strain).
T2 construct: source: bought: Sino Biological
The experiment in a line: ELISA. To be noted: one partner purified. (In general: An ELISA detects its analyte on a solid surface through an enzyme-linked reagent.)

Experiment [3] deals with T3, H3N2 HA (A/Perth/16/2009) (Influenza A virus A/Perth/16/2009 (H3N2), UniProt C6KNH7, strain).
T3 construct: also called H3N2 hemagglutinin; source: bought: Sino Biological
The experiment in a line: ELISA. To be noted: one partner purified.

The target in experiment [4] is T4, H5N1 HA (A/Vietnam/1194/2004) (Influenza A virus A/Vietnam/1194/2004 …, UniProt A5A5M5, strain).
T4 construct: also called H5N1 hemagglutinin; source: bought: Sino Biological
The experiment in a line: ELISA. To be noted: one partner purified.

The target of experiment [5] is T4, H5N1 HA (A/Vietnam/1194/2004).

Like-named read-outs stand apart in the source and are kept apart here.

B1: TT-Ab11 (antibody, V domains shown)
VH: QVQLQESGPGLVKPSQTLSLTCNVSDGSISSDGYYWSWLRQHPGKGPEWIGYIHHSGHPYYNPSLKSRVTMSIDTSKNQFALKLSSVTAVDTAMYYCARVRGTGYYPGTLDLWGQGTLVTVSS
VL: EIVLTQSPGTLSLSPGERATLSCRASQSVSSSYFAWYQQIPGQAPRLLIYGTSNRATGIPDRFSGSGSGKDFTLTISRLEPEDFAVYYCQQFGSSPLTFGGGTKVEIK
Take B1: the binding result with tetanus toxoid was “binds”.

B2: H5-Ab2 (antibody, V domains shown)
VH: EVQLVQSGAEVKKPGSSVKVSCRSSGGPFRSNAISWVRQAPGQGLEWMGGIIAVFGTVEYAQKFQGRVTITADDSRSTVYMELRSLRSDDTAFYYCASAHGYHNYGSRGYFVSWGQGTLVTVSS
VL: DIVMTQSPGTLSLSPGERATLSCRASQSVSSNYLAWYQQKLGQPPRLLIYGASSRATGIPDRFSGSGSGTDFTLTISRLEPEDYAVYYCQQYGSSPHTFGQGTKVEIK
Regarding B2, the binding result in experiment [1] is “binds”.

B3: H5-Ab4 (antibody, V domains shown)
VH: EVQLVESGGGAVQPGRSLRLSCAVSGFTFSSYGMNWVRQAPGKGLEWVAVISYDGSNTYYADSVKGRFTISRDDSKNTLFLQMNSLRADDTAVYYCAKDFQLRLLRYFDWLSSPFDHWGQGTLVTVSS
VL: DIQLTQSPGTLSLSPGERATLSCRASQSIRSNFLAWYQQTPGQGPRLLIYGASSRATGIPDRFSGSGSGTDFTLTISGLEPEDFAVYYCQQYASSPQTFGQGTKVEIK
For B3, the binding result in experiment [1] is reported as “binds”.

B4: H5-Ab6 (antibody, V domains shown)
VH: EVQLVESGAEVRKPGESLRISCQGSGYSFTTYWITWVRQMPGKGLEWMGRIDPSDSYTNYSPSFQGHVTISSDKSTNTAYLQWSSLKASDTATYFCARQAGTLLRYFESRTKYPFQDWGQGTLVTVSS
VL: EIVLTQSPGTLSLSPGERATLSCRASQSVSGGYLAWYQQRPGQAPRLLISGASTRATGIPDRFSGSGSGTDFTLTISGLEPEDFAVYYCQQYGDSPAYTFGQGTKVEIK
B4: the binding result in experiment [1] (one partner purified), in experiment [2], in experiment [3] and in experiment [4] was “binds” in each case.

B5: TT-Ab13 (antibody, V domains shown)
VH: EVQLVESGAEVKKPGESLRISCKGSGYSFTTYWIGWVRQMPGKGLEWIGIIYAGDSDTRYSPSFQGQVTMPVDKSITTAYLQWSSLKASDTAMYYCARQGDPSSYLTSGFEFWGQGTLVTVSS
VL: DIQMTQSPSTLSASVGDGVTITCRASQSISRWLAWYQQKPGKAPKLLIYQASRLESGVPSRFSGSGSGTEFTLSISSLQPDDFATYYCHQYNSYSQTFGQGTKVEIK
For the molecule B5, in the experiment with tetanus toxoid, the binding result is reported as “binds”.

B6: H5-Ab3 (antibody, V domains shown)
VH: EVQLVESGGGLVKPGGSLRLSCAASGFTFSTYSMNWVRHAPGKGLEWVSSISSGSNYIYYADSVKGRFTISRDNAKNSLYLQMNNLRAEDTAVYHCARDRGESSYYWFDPWGQGTLVTVSS
VL: QSALTQPASVSGSPGQSITISCTGTSSDVGAYDYVSWYRQHPGEAPKLLIYDVARRPSGVSFRFSGSKSGNAASLTISGLQAEDEADYFCSSYAGTTIWVFGGGTKLTVL
On to B6, for which, in experiment [5], the binding result is recorded as “binds”.

The values are drawn from paper PMC5551578 (The Journal of Experimental Medicine, 2017).
